The results in this text go back to patent US20170290876A1 (Novartis, published 2017).

Assay [1] deals with T1, human Factor P (human, UniProt P27918 28-469, biotinylated (site not stated)).
T1 construct: also called Factor P-biotin; Hu factor P-biotin
In words: Biacore SPR, Hu factor P-biotin, 37 C.

In assay [2] the target is T2, human TNFα (human, UniProt P01375 77-233, biotinylated (site not stated)).
T2 construct: also called TNFα-biotin; Hu TNFα-biotin
The experiment in a line: Biacore SPR, Hu TNFα-biotin, 37 C.

For assay [3], the target named is T3, human VEGF (human, UniProt P15692 207-395, biotinylated (site not stated)).
T3 construct: Biotinylated human VEGF generated internally; also called hVEGF; hVEGF-biotin
T3 sequence: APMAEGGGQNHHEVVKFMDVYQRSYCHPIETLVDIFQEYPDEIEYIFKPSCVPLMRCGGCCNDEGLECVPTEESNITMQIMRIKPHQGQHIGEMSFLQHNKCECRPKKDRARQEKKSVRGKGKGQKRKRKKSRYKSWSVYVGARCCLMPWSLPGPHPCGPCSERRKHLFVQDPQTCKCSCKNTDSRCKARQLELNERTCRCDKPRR
The experiment in a line: Biacore SPR, hVEGF.

Assay [4] addresses T3, human VEGF. In words: Biacore SPR, Hu VEGF-biotin, 25 C.
Experimental: (§1) In order to determine target kinetics, two different formats were utilized. […] The second format is an anti-fab capture method in which the fab protein samples are captured and the target proteins flowed over at various concentrations.
(§2) The sample compartment which includes the analytes, ligands, and regeneration buffer, is kept at 15° C. All other running conditions were carried out at either 25° C. or 37° C. in 1×HBSE+P buffer. […] Data was collected at 10 Hz and analyzed using the Biacore T200 Evaluation Software (GE Healthcare®). This program uses a global fitting analysis method for the determination of rate and affinity constants for each interaction.
The target in assay [5] is T3, human VEGF. The experiment in a line: Biacore SPR, human VEGF.
Experimental: as §1, §2
For assay [6], the target named is T3, human VEGF. In words: Biacore SPR, hVEGF-biotin, 25 C.

Positions count from the first letter of the chain named.

T1 sequence (P27918 28-469 limits assumed): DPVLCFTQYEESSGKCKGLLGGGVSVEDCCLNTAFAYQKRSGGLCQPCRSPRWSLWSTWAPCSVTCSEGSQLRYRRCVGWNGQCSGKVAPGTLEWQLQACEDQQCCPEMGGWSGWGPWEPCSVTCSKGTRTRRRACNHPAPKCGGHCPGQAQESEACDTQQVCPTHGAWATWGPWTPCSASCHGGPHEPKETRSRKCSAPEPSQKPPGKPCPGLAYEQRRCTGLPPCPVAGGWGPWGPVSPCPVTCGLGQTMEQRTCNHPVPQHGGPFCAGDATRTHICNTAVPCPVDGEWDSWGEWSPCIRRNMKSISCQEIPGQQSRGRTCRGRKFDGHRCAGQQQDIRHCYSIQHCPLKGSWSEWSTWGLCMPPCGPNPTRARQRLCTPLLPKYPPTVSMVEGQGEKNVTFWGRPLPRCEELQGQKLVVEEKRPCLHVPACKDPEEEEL
T2 sequence (P01375 77-233 limits assumed): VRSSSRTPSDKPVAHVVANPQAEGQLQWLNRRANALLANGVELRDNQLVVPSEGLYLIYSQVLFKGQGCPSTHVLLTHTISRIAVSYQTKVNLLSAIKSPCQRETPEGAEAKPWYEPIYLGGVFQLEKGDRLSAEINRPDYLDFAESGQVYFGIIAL

B1: NVS71 (Fab, V domains shown)
VH: EVQLVQSGAEVKKPGSSVKVSCKASGGTFSSYAISWVRQAPGQGLEWMGRIIPIFGTANYAQKFQGRVTITADESTSTAYMELSSLRSEDTAVYYCARHGGYSFDSWGQGTLVTVSS
VL: SYELTQPPSVSVAPGQTARISCSGDNLGSKYVDWYQQKPGQAPVLVIYSDNNRPSGIPERFSGSNSGNTATLTISGTQAEDEADYYCQTYTSGNNYLVFGGGTKLTVLG
notes: Untagged anti-Factor P Fab
In assay [1], B1 registered a Kd of 543 pM, a koff of 0.00161 s⁻¹ and a kon of 2.96e+06 M⁻¹ s⁻¹.

B2: NVS73 (Fab, V domains shown)
VH: EVQLVESGGGSVQPGGSLRLSCTASGFTISRSYWICWVRQAPGKGLEWVGCIYGDNDITPLYANWAKGRFTISRDTSKNTVYLQMNSLRAEDTATYYCARLGYADYAYDLWGQGTTVTVSS
VL: EIVMTQSPSTLSASVGDRVIITCQSSQSVYGNIWMAWYQQKPGRAPKLLIYQASKLASGVPSRFSGSGSGAEFTLTISSLQPDDFATYYCQGNFNTGDRYAFGQGTKLTVLK
notes: Untagged anti-TNFα Fab
Turning to B2, in assay [2], the Kd stood at 26 pM, the koff is 8.01e-05 s⁻¹ and the kon stood at 3.08e+06 M⁻¹ s⁻¹.

B3: NVS104 (Fab)
heavy: GACGVYHREAQSGKYYLTYAEAKAVCEFEGGHLATYKQLLCAQKIGFHVCAAGWMAKGRVGYPIVKPGPNCGFGKTGIIDYGIRLNRSERWDAYCYNPHAGGGSQVQLVESGGGLVQPGGSLRLSCTASGFSLTDYYYMTWVRQAPGKGLEWVGFIDPDDDPYYATWAKGRFTISRDNSKNTLYLQMNSLRAEDTAVYYCAGGDHNSGWGLDIWGQGTLVTVSSASTKGPSVFPLAPSSKSTSGGTAALGCLVKDYFPEPVTVSWNSGALTSGVHTFPAVLQSSGLYSLSSVVTVPSSSLGTQTYICNVNHKPSNTKVDKRVEPKSC
light: ACGVYHREAQSGKYYLTYAEAKAVCEFEGGHLATYKQLLCAQKIGFHVCAAGWMAKGRVGYPIVKPGPNCGFGKTGIIDYGIRLNRSERWDAYCYNPHAGGGSDIVMTQSPSTLSASVGDRVIITCQASEIIHSWLAWYQQKPGKAPKLLIYLASTLASGVPSRFSGSGSGAEFTLTISSLQPDDFATYYCQNVYLASTNGANFGQGTKLTVLKRTVAAPSVFIFPPSDEQLKSGTASVVCLLNNFYPREAKVQWKVDNALQSGNSQESVTEQDSKDSTYSLSSTLTLSKADYEKHKVYACEVTHQGLSSPVTKSFNRGEC
notes: Tag NVS-AX at the N-terminus of NVS4 heavy and light chains
As to B3, in assay [3], the Kd was 0.854 pM, the koff is 1.57e-05 s⁻¹ and the association rate constant (kon) is 1.84e+07 M⁻¹ s⁻¹.

B4: NVS106 (Fab)
heavy: B3 heavy with Q105E, D135N, D159Q, D160N, D204N, D212N
light: B3 light with D104E, E130Q, I131K, L153Q, T156K, S159K
notes: Tag NVS-AX at the N-terminus of the LC2 light chain and the HC4 heavy chain
Consider B4, for which, in assay [3], the affinity, expressed as Kd, was 10.4 pM; the koff is 0.000563 s⁻¹; the on-rate constant (kon) is 5.4e+07 M⁻¹ s⁻¹.

B5: NVS84 (designed binder)
chain: SDLGKKLLEAARAGQDDEVRILMANGADVNTADSTGWTPLHLAVPWGHLEIVEVLLKYGADVNAKDFQGWTPLHLAAAIGHQEIVEVLLKNGADVNAQDKFGKTAFDISIDNGNEDLAEILQKAAGSLPETGGGSGHHHHHH
notes: Untagged anti-VEGF DARPin
Take B5: in assay [4], the Kd stood at 419 pM, the koff stood at 0.00168 s⁻¹ and the kon turned out to be 4.01e+06 M⁻¹ s⁻¹.

B6: NVS105 (Fab)
heavy: QVQLVESGGGLVQPGGSLRLSCTASGFSLTDYYYMTWVRQAPGKGLEWVGFIDPDDDPYYATWAKGRFTISRDNSKNTLYLQMNSLRAEDTAVYYCAGGDHNSGWGLDIWGQGTLVTVSSASTKGPSVFPLAPSSKSTSGGTAALGCLVKDYFPEPVTVSWNSGALTSGVHTFPAVLQSSGLYSLSSVVTVPSSSLGTQTYICNVNHKPSNTKVDKRVEPKSCGSGGGACGVYHREAQSGKYYLTYAEAKAVCEFEGGHLATYKQLLCAQKIGFHVCAAGWMAKGRVGYPIVKPGPNCGFGKTGIIDYGIRLNRSERWDAYCYNPHA
light: DIVMTQSPSTLSASVGDRVIITCQASEIIHSWLAWYQQKPGKAPKLLIYLASTLASGVPSRFSGSGSGAEFTLTISSLQPDDFATYYCQNVYLASTNGANFGQGTKLTVLKRTVAAPSVFIFPPSDEQLKSGTASVVCLLNNFYPREAKVQWKVDNALQSGNSQESVTEQDSKDSTYSLSSTLTLSKADYEKHKVYACEVTHQGLSSPVTKSFNRGECGSGGGACGVYHREAQSGKYYLTYAEAKAVCEFEGGHLATYKQLLCAQKIGFHVCAAGWMAKGRVGYPIVKPGPNCGFGKTGIIDYGIRLNRSERWDAYCYNPHA
notes: Tag NVS-AX at the C-terminus of NVS4 heavy and light chains
With B6, in assay [3], binding was characterised by a dissociation constant (Kd) of 0.13 pM, the koff was 3.97e-05 s⁻¹ and the kon was 3.06e+08 M⁻¹ s⁻¹.

B7: NVS107 (Fab)
heavy: B6 heavy with Q1E, D31N, D55Q, D56N, D100N, D108N
light: B6 light with D1E, E27Q, I28K, L50Q, T53K, S56K
notes: Tag NVS-AX at the C-terminus of the LC2 light chain and the HC4 heavy chain
In assay [3], B7 registered a Kd of 0.741 pM, a koff of 0.000104 s⁻¹ and a kon of 1.41e+08 M⁻¹ s⁻¹.

B8: NVS4 (Fab)
heavy: EVQLVESGGGLVQPGGSLRLSCTASGFSLTDYYYMTWVRQAPGKGLEWVGFIDPDDDPYYATWAKGRFTISRDNSKNTLYLQMNSLRAEDTAVYYCAGGDHNSGWGLDIWGQGTLVTVSSASTKGPSVFPLAPSSKSTSGGTAALGCLVKDYFPEPVTVSWNSGALTSGVHTFPAVLQSSGLYSLSSVVTVPSSSLGTQTYICNVNHKPSNTKVDKRVEPKSC
light: EIVMTQSPSTLSASVGDRVIITCQASEIIHSWLAWYQQKPGKAPKLLIYLASTLASGVPSRFSGSGSGAEFTLTISSLQPDDFATYYCQNVYLASTNGANFGQGTKLTVLKRTVAAPSVFIFPPSDEQLKSGTASVVCLLNNFYPREAKVQWKVDNALQSGNSQESVTEQDSKDSTYSLSSTLTLSKADYEKHKVYACEVTHQGLSSPVTKSFNRGEC
notes: Fab version of the 1008 scFv; also called untagged anti-VEGF Fab
In assay [5], B8 returned a Kd of 5.1 pM, a koff of 1.38e-05 s⁻¹ and a kon of 2.71e+06 M⁻¹ s⁻¹.

B9: NVS1h (Fab)
heavy: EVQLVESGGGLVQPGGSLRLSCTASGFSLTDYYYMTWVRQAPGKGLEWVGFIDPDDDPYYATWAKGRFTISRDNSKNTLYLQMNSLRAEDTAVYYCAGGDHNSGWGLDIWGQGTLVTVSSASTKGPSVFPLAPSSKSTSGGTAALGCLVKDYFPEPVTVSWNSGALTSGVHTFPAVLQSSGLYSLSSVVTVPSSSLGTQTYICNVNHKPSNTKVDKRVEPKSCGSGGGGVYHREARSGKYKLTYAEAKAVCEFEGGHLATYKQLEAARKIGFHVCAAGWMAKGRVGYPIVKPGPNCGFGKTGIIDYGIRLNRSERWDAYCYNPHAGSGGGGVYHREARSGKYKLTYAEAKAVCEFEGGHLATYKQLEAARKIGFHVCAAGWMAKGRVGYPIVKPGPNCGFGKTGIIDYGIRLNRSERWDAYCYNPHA
light: B8 light
notes: NVS4 with tandem HA tags at the heavy chain C-terminus
For B9, in assay [6], the dissociation constant (Kd) came to 0.558 pM, the koff stood at 8.76e-06 s⁻¹ and the kon is 1.57e+07 M⁻¹ s⁻¹.

B10: NVS1g (Fab)
heavy: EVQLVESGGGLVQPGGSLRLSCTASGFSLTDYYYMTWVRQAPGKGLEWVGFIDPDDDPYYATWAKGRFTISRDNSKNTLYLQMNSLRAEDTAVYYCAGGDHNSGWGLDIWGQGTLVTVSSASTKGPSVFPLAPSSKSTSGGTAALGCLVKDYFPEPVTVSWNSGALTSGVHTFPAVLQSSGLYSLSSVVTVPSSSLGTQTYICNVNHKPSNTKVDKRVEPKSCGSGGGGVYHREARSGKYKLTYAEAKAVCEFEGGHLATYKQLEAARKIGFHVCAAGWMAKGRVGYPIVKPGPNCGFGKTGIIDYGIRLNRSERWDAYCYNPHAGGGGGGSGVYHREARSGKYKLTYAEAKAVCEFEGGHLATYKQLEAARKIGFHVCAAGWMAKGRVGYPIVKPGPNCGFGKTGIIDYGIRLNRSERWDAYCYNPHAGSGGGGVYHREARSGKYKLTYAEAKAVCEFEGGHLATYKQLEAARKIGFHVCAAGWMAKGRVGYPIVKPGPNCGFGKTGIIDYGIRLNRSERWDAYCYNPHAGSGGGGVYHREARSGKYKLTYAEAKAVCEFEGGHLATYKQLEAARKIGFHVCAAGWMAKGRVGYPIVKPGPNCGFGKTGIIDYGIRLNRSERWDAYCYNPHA
light: B8 light
notes: NVS4 with four tandem HA tags at the heavy chain C-terminus
For the molecule B10, in assay [6], binding was characterised by a dissociation constant (Kd) of 5.46 pM and the kon came to 614000 M⁻¹ s⁻¹.

B11: NVS1j (Fab)
heavy: B8 heavy
light: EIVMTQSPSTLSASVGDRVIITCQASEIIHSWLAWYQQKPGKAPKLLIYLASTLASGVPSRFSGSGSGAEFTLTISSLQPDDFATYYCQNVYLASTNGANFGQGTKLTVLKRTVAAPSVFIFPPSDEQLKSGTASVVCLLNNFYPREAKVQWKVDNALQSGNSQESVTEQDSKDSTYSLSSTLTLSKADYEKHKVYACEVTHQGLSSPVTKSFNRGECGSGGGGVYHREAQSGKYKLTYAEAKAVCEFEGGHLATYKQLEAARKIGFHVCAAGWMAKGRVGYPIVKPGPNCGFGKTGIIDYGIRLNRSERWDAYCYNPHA
notes: NVS4 with HA tag at the light chain C-terminus
As to B11, in assay [6], binding was characterised by a dissociation constant (Kd) of 5.64 pM, the koff was determined as 0.000172 s⁻¹ and the kon came out at 3.05e+07 M⁻¹ s⁻¹.

B12: NVS36 (Fab)
heavy: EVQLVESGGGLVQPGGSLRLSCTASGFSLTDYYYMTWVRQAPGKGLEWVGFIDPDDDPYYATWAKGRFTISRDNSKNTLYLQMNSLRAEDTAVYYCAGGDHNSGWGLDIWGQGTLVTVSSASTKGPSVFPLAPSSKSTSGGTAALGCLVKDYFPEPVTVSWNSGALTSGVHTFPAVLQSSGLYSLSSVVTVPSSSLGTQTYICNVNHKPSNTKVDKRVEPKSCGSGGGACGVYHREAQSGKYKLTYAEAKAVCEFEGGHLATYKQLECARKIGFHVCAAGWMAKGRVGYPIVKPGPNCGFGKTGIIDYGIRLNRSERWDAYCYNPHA
light: B8 light
notes: NVS4 Fab with HA11 tag; also called NVS4 linked to tag NVS-A
In assay [5], B12 displayed a Kd of 0.656 pM, a koff of 2.5e-05 s⁻¹ and a kon of 3.81e+07 M⁻¹ s⁻¹. In assay [3], the affinity, expressed as Kd, was 4.13 pM; the koff came out at 0.000257 s⁻¹; the kon turned out to be 6.23e+07 M⁻¹ s⁻¹.

B13: NVS103 (Fab)
heavy: B8 heavy
light: B6 light
notes: Tag NVS-AX at the C-terminus of the NVS4 light chain
As to B13, in assay [3], the Kd is 2.34 pM, the koff is 0.000128 s⁻¹ and the kon turned out to be 5.49e+07 M⁻¹ s⁻¹.

B14: NVS3 (Fab)
heavy: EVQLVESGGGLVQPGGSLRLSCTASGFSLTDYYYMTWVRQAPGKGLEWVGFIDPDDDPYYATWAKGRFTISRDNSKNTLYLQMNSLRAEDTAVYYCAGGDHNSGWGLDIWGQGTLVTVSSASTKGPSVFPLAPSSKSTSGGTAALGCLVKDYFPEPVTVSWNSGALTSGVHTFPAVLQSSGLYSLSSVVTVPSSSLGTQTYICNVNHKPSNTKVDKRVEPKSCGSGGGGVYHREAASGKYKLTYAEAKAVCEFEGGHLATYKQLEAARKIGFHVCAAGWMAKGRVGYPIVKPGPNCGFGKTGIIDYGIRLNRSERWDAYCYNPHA
light: B8 light
notes: NVS4 Fab with HA10.2 tag at heavy chain C-terminus
As to B14, in assay [5], the Kd was 0.161 pM, the koff stood at 1.19e-05 s⁻¹ and the kon worked out at 7.39e+07 M⁻¹ s⁻¹.

B15: NVS37 (Fab)
heavy: EVQLVESGGGLVQPGGSLRLSCTASGFSLTDYYYMTWVRQAPGKGLEWVGFIDPDDDPYYATWAKGRFTISRDNSKNTLYLQMNSLRAEDTAVYYCAGGDHNSGWGLDIWGQGTLVTVSSASTKGPSVFPLAPSSKSTSGGTAALGCLVKDYFPEPVTVSWNSGALTSGVHTFPAVLQSSGLYSLSSVVTVPSSSLGTQTYICNVNHKPSNTKVDKRVEPKSCGSGGGGVYHREAQSGKYKLTYAEAKAVCEFEGGHLCTYKQLEAARKIGFHVCAAGWMAKGRVGYPIVKPGPNCGFGKTGIIDYGIRLNRSERWDAYCCNPHA
light: B8 light
notes: NVS4 Fab with HA11.1 tag
B15: in assay [5], binding was put at a Kd of 3.07 pM, the koff turned out to be 7.21e-05 s⁻¹ and the kon stood at 2.35e+07 M⁻¹ s⁻¹.

B16: NVS2 (Fab)
heavy: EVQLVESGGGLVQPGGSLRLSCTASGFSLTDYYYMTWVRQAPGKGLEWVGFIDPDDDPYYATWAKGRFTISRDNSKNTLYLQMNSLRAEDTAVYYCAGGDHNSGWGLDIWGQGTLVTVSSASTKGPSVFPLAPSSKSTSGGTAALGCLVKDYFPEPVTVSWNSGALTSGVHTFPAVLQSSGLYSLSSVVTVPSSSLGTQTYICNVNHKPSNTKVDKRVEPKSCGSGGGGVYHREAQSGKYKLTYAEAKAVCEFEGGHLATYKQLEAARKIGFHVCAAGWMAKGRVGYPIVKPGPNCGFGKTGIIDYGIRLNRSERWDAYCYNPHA
light: B8 light
notes: NVS4 Fab with HA10.1 tag at heavy chain C-terminus
On to B16, for which, in assay [5], binding was characterised by a dissociation constant (Kd) of 0.195 pM, the koff turned out to be 1.05e-05 s⁻¹ and the kon was 5.36e+07 M⁻¹ s⁻¹.

B17: NVS1 (Fab)
heavy: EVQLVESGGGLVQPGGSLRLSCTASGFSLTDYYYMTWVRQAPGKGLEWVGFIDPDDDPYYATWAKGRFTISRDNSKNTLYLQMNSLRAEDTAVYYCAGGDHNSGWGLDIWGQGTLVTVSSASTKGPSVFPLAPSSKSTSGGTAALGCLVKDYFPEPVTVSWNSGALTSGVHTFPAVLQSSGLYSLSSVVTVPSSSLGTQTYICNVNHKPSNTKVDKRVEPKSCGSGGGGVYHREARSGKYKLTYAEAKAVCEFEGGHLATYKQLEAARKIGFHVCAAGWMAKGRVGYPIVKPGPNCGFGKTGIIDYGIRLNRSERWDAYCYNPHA
light: B8 light
notes: NVS4 Fab with HA10 tag via GSGGG at heavy chain C-terminus
For the molecule B17, in assay [5], binding was characterised by a dissociation constant (Kd) of 0.176 pM, the koff stood at 1.01e-05 s⁻¹ and the kon worked out at 5.75e+07 M⁻¹ s⁻¹.
